# Test results published in the supplement of paper PMC9170038.
# Tested on: K4 kissing-loop RNA reporter
# Assay: apparent KD of K4 kissing-loop reporter; higher = weaker reporter binding
# Details: Eterna round: R107
# Description: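 RNA-MaP round R107: designed RNA switches with theophylline, tryptophan, arginine or FMN aptamers are transcribed on-chip within common flanks. They are titrated with a labelled K4 kissing-loop RNA reporter in RNA-MaP buffer (100 mM Tris pH 7.5, 80 mM KCl, 4 mM MgCl2), without ligand or with the indicated ligand. Median apparent KD per design.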
# [1] = input ligand: theophylline 20 uM
# [2] = input ligand: tryptophan 2.4 mM
# 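Further: bound reporter read as fluorescence of individual clusters on recovered sequencing chips by microscopy, with normalized cluster intensities fitted with a binding model.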
Sequence,apparent KD of K4 kissing-loop reporter (input ligand: FMN 200 uM),apparent KD of K4 kissing-loop reporter (input ligand: arginine 13.2 mM),apparent KD of K4 kissing-loop reporter (input ligand: none),apparent KD of K4 kissing-loop reporter [1],apparent KD of K4 kissing-loop reporter [2]
UUUCUACCGGGAAGGAGCGUGAAUGAUAAUGGAUAUAGUGAUGUUAUAUAUACGAACGAAUCGCAGGUAGGUCGCCCGGAUCACU [SSArgB.U],655 nM,859 nM,1470 nM,1480 nM,1090 nM
AAUUUAGUGACGGCCGCCACUAGGGUGAUUUUUUUGUUUGAGUGAUGUUUUGAUGUUUGAUUUUGUAGGACCGGGUUAGGUGAUG [cccmullin],327 nM,310 nM,343 nM,364 nM,262 nM
ACGAUCAUGUCGGCCGCCACUGAGAGUAGUGAUGUUACUUUUAUGUUUUAGUUAUAAUAUUUGAACAGGACCGGGACAUGUUCGU [JR_ExcTryptoB_Sub023],103 nM,84.8 nM,85.3 nM,80.1 nM,92.2 nM
UAACGACUCGGAAGGAGCGCGGUUUUAAAAGACUAAGGCCGAGUGAUGUUCGGAGAAGUCCCGCAGGUAGGUCGCCGGGUUGUGG [Ceororedar],124 nM,138 nM,130 nM,199 nM,148 nM
GUGAAGGAGCAGCAGUGAUGUUGCUGAGACUAGGAUAUCAGGAAACUGAGAAGGAGUCAACUCCUUCACCUAGACUGCAACAUAA [KL-SSFMN-A13],173 nM,167 nM,180 nM,249 nM,152 nM
UGUGUGUAGGGAAGGAGCGCCGAGAGAAGAAGAAAAGAGUGAUGUUCAAGACAAUAAAGACGGCAGGUAGGUCGCCCUGUGUGUG [Default title],756 nM,706 nM,516 nM,517 nM,267 nM
AUUCAUUUCAGAGGAUAUCGAUGGAGAGUGAUGUUCUCCCAUAGCCAGUGAUGUUGGCUAGCUAUUCGAGAAGGCUGUGGGUGGA [Same State FMN B GF 27],141 nM,227 nM,210 nM,202 nM,208 nM
GGGAACUCUUACGAUACCAGCCGGAGUGAUGUUCCGUGCUUGGACGUAGUAACCCGCACCGGCCCUUGGCAGCGUGGAUCUUGUG [Esgeonin],80.6 nM,65.5 nM,78.1 nM,73.2 nM,83.5 nM
AGAUGUCUCUGGGAUACCAGUCGGAGUCUCAGGGCUCGGAGUGAUGUUCUGGGAUGUUUCGGCCCUUGGCAGCCCUGGGACUCCC [#2 Exclusion - Theophylline B Attempt #27 (HarryS)],724 nM,514 nM,649 nM,740 nM,542 nM
UGAUUUAACUGAAGGAGCGGCAAUUGAUAAGUAAAUAUAGUGAUGUUAUAUAAGAUAGAGAGCCAGGUAGGUCGCAGAGGUAGGA [ExArgB.K],193 nM,139 nM,152 nM,178 nM,127 nM
UGGACCAAGGAGUGAUGUUCCAAAUGUGAUACCAGCCACGAAAGUGGCCCUUGGCAGCACUGCCAGGACGAAAACGUCCGGUCCU [#SwitchBubble 12 #StaticStem #K4Early],358 nM,367 nM,391 nM,777 nM,261 nM
AAAUGCAGCAAACGAGUGAUGUUCGACGAUACCAGCCUCGAUAGAGGCCCUUGGCAGCGUACAUCAAAGCCAAGGGCUGCUAAAA [#SwitchBubble 3],483 nM,463 nM,552 nM,499 nM,454 nM
UUUUUGGAGAAUUAUAGUGAUGUUAUGAAGGAGGAUAUCUGGAGAUGGAGAAGGCCUAGUGGCUCAGCCCUCGAGGGUGGGUGGG [ExFMNA.aC],646 nM,626 nM,441 nM,778 nM,354 nM
UAAGAGGACCACUGCAAGAGUCCUCGAAUACGAGGACCGGUACGGCCGCCACUCGAUAAUUUGCAGUGAUGUUGCAAGUAAGAAU [BrourdMod 5 - Jieux - Same State Tryptophan A],115 nM,167 nM,130 nM,177 nM,54.4 nM
GGGCAUCUGGCUGAUACCAGUGAUAAAGGGUAAGAGACAGGGAGUGAUGUUCCCUUUAGCCACCCUUGGCAGCAGUUUAAGUUUG [Exclusion Theophylline B GF 17],83.5 nM,83.3 nM,94.7 nM,85.4 nM,76.4 nM
UGGCGAGUGAUGUUCGUUGUUGUAGUGUGUCGAGGACCGGUACGGCCGCCACUCGAGUUGGUUGUUGUUGUUGCUGUUGUUGCUG [#03 K4 Tryptophan A Same State],196 nM,158 nM,181 nM,157 nM,99 nM
GAGAUAGCGACGGCCGCCACUAGUGAUGUUAGUGCGGGUAGAUAGAUACUUGAACAGAAAUGACGUAGGACCGGGUCAGAUAGAG [#02 K4 Tryptophan B Exclusion],162 nM,94.5 nM,125 nM,140 nM,149 nM
UGCUUUAUCAGAAGGAGCGCGUUGGUCAUAAUAAUAAUCAGUGAUGUUGAUAUAUGAGGAUUGCAGGUAGGUCGCUGAUAUAGCU [KL-XARG-B1],323 nM,210 nM,390 nM,255 nM,229 nM
AGUCCACUCUAAAGAGUGGACCUAAGGGAUACCAGUGAUGUUGGUCACCCUUGGCAGCCCUCUGUCAUCGAUAAAGAUGGCAGGA,128 nM,114 nM,113 nM,137 nM,119 nM
AGGAUGUAGUGAUGUUAUAUAAGAAGUAGACGAGGACCGGUACGGCCGCCACUCGAAACGGCUACUAGCGCGUUGCGAGGUGUGC [ExTryptoA.Cg],576 nM,435 nM,476 nM,468 nM,326 nM
AUGGUUGUCGUAGGAUAUGUAGGAUAUUCCUAUAGCAGUGAUGUUGCUAAUAUCUUGGAAAGAAGGACAGAAGGACGAUAACCAC [KL-SSFMN-B2 #analogue],114 nM,112 nM,119 nM,108 nM,111 nM
